Measurements: article PMC8837534, “CD147 supports paclitaxel resistance via interacting with RanBP1” (Oncogene, 2022)

Biological target: T1, RanBP1 protein (full-length, recombinant) (UniProt P43487 1-201)
T1 construct: pMAL-c5x vector; that this removed MBP is inferred; source: E. coli BL21 (DE3), purified (MBPTrap HP, thrombin digestion, Superdex 75); not shown: MBP, N-terminal, cleaved
Assay: SPR; ProteOn XPR36, One-shot Kinetics; concentration series of CD147^ICD injected over the immobilized ligand in TBS-T, 50 μL/min for 3 min, dissociation 12 min; constants by ProteOn Manager Software
Settings: both partners purified

T1 sequence (P43487 whole entry): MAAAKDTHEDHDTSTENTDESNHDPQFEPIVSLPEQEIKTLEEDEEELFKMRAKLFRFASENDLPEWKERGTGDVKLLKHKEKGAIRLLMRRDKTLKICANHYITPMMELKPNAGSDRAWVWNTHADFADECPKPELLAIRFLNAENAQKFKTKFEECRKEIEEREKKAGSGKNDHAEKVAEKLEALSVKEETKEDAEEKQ

Kd: 2250 nM
B1: His6-tagged CD147^ICD (intracellular domain of CD147, residues 231-269) (domain or fragment, UniProt P35613-2 231-269, looked up)
chain: KRRKPEDVLDDDDAGSAPLKSSGQHQNDKGKNVRQRNSS
notes: CD147 (basigin), intracellular domain, residues 231-269; One preparation is described (pET21a, 'SUMO-His tag at the C-terminus', SUMO removed by Ulp1); The pull-down names the bait as His6-tagged; source: E. coli BL21 (DE3), purified (HisTrap HP, Ulp1 digestion, Superdex 75); not shown: SUMO, C-terminal, cleaved; His6, C-terminal, kept
